The record followed here is patent publication US20240132578A1.

Bounds are passed on as bounds.

Common to all, as to experiment: cell-based or functional assay
Test [1] addresses HIV-1 Env of isolate MGRM-F1-020 (HIV-1).
The target in test [2] is HIV-1 Env of isolate MGRM-AE-001 (pseudovirus) (HIV-1).
Test [3] deals with HIV-1 Env of isolate MGRM-G-013 (subtype G) (HIV-1).
Test [4] has as its target HIV-1 Env of isolate MGRM-AG-009 (pseudovirus) (HIV-1).
For test [5], the target named is HIV-1 Env of isolate MGRM-G-017 (subtype G) (HIV-1).
The target of test [6] is HIV-1 JR-CSF Env N392Q (HIV-1 (isolate JR-CSF)) (UniProt P20871).
Test [7] has as its target HIV-1 envelope glycoprotein (Env) of isolate MG RM-A-013, subtype A (HIV-1).
In test [8] the target is HIV-1 envelope glycoprotein (Env) of isolate MG RM-A-001, subtype A (HIV-1).
Test [9] has as its target HIV-1 envelope glycoprotein (Env) of isolate VLGCA1, subtype A (HIV-1).
Test [10] deals with HIV-1 envelope glycoprotein (Env) of isolate SC422661.8, on pseudovirus (HIV-1).
Test [11] concerns the target HIV-1 envelope glycoprotein (Env) of isolate APV_17, on pseudovirus (HIV-1).
Test [12] deals with HIV-1 envelope glycoprotein (Env) of isolate MG RM-A-011, subtype A (HIV-1).
Test [13] addresses aMLV envelope protein on pseudovirus (negative control).
For test [14], the target named is HIV-1 envelope glycoprotein (Env) of isolate MG RM-A-014, subtype A (HIV-1).
For test [15], the target named is HIV-1 envelope glycoprotein (Env) of isolate 93UG077, subtype A (HIV-1).
In test [16] the target is HIV-1 JR-CSF Env D417A (HIV-1 (isolate JR-CSF)) (UniProt P20871).
Test [17] has as its target HIV-1 envelope glycoprotein (Env) of isolate MG RM-A-006, subtype A (HIV-1).
Test [18] has as its target HIV-1 JR-CSF Env W395A (HIV-1 (isolate JR-CSF)) (UniProt P20871).
In test [19] the target is HIV-1 JR-CSF Env F468A (HIV-1 (isolate JR-CSF)) (UniProt P20871).
In test [20] the target is HIV-1 envelope glycoprotein (Env) of isolate CMU02, subtype AE (HIV-1).
Test [21] addresses HIV-1 Env of isolate MGRM-D-012 (clade D pseudovirus) (HIV-1).
Test [22] deals with HIV-1 Env of isolate MGRM-D-028 (clade D pseudovirus) (HIV-1).
The target of test [23] is HIV-1 Env of isolate MGRM-D-004 (clade D pseudovirus) (HIV-1).
Test [24] addresses HIV-1 envelope glycoprotein (Env) of isolate MGRM-C-004 (HIV-1).
The target of test [25] is HIV-1 92RW021 envelope glycoprotein (Env) on pseudovirus (HIV-1 (clade A)).

Take PGV04 (antibody): the IC50 (µg/mL), pseudovirus neutralization in [1] is 5.99 µg/mL; in test [2] it was 0.063 µg/mL; in [3], 0.168 µg/mL; in [4], 0.148 µg/mL; in test [5], 0.065 µg/mL.
Regarding 4858_P08 (PGT-123) (antibody), the Fold IC50 increase relative to wild-type (pseudovirus neutralization) came out at 1 fold in test [6], 0.7 fold in [16], 0.4 fold in test [18] and 0.5 fold in test [19]. The IC50, pseudovirus neutralization in test [7] is 0.565 µg/mL; in test [8], over 50 µg/mL; in test [9] it was over 50 µg/mL; in test [10], 0.039 µg/mL; in [11], 0.114 µg/mL; in test [12], over 50 µg/mL. For the same substance, the IC50, pseudovirus neutralization in test [14] was 0.003 µg/mL; in [15], 0.028 µg/mL; in test [17], over 50 µg/mL; in test [20], over 50 µg/mL. The substance also had an IC50 (ug/mL), pseudovirus neutralization in test [13] of over 10 µg/mL. Further, in test [4], the IC50 (µg/mL), pseudovirus neutralization came to 0.073 µg/mL.
Regarding 4838_L06 (PGT-121) (antibody), the IC50, pseudovirus neutralization in test [7] was 0.387 µg/mL; in test [8] it was over 50 µg/mL; in test [9], over 50 µg/mL; in test [10] it was 0.098 µg/mL; in test [11] it was 0.066 µg/mL; in test [12] it was over 50 µg/mL. Moreover, the IC50, pseudovirus neutralization in test [14] was 0.003 µg/mL; in [15] it was 0.019 µg/mL; in test [17], 0.396 µg/mL; in [20], over 50 µg/mL. Besides, the IC50 (ug/mL), pseudovirus neutralization in test [13] is over 10 µg/mL.
On to 5145_B14 (PGT-127) (antibody), for which the Fold IC50 increase relative to wild-type (pseudovirus neutralization) came out at 1.1 fold in test [6], 0.4 fold in test [16], 1.6 fold in test [18] and 3 fold in [19]. Besides, the IC50, pseudovirus neutralization is 0.029 µg/mL in test [7]; over 50 µg/mL in test [8]; over 50 µg/mL in test [9]; 36.7 µg/mL in test [10]; 10.4 µg/mL in [11]; over 50 µg/mL in [12]. For the same substance, the IC50, pseudovirus neutralization in test [14] is 0.04 µg/mL; in [15] it was 0.055 µg/mL; in test [17], over 50 µg/mL; in [20], over 50 µg/mL. In test [4], the IC50 (µg/mL), pseudovirus neutralization came to 0.059 µg/mL.
Take 4877_D15 (PGT-122) (antibody): the IC50, pseudovirus neutralization was 2.47 µg/mL in [7]; over 50 µg/mL in [8]; over 50 µg/mL in test [9]; 0.103 µg/mL in test [10]; 0.25 µg/mL in [11]; over 50 µg/mL in test [12]. Also, the IC50, pseudovirus neutralization in test [14] was 0.007 µg/mL; in test [15], 0.084 µg/mL; in test [17] it was over 50 µg/mL; in test [20], over 50 µg/mL. This substance yielded an IC50 (ug/mL), pseudovirus neutralization in test [13] of over 10 µg/mL. Also, the IC50 (µg/mL), pseudovirus neutralization in [4] was 0.128 µg/mL.
With 1496_C09 (PG9) (TCN-109) (antibody), the IC50, pseudovirus neutralization was determined as 9.31 µg/mL in test [21], 4.39 µg/mL in test [22] and 0.03 µg/mL in [23]. For the same substance, the IC50 (µg/ml), pseudovirus neutralization in test [24] amounted to 1.18 µg/mL; in test [25] it was 0.05 µg/mL. Moreover, the IC50 (µg/mL), pseudovirus neutralization was found to be 6.4 µg/mL in [1], 20.6 µg/mL in test [2] and 0.104 µg/mL in [5].
